According to paper PMC9269880 (Science Advances, 2022):

B1: 3XFLAG-Swi6 (natural protein, S. pombe, UniProt P40381 1-328, looked up)
chain: MKKGGVRSYRRSSTSKRSVIDDDSEPELPSMTKEAIASHKADSGSSDNEVESDHESKSSSKKLKENAKEEEGGEEEEEDEYVVEKVLKHRMARKGGGYEYLLKWEGYDDPSDNTWSSEADCSGCKQLIEAYWNEHGGRPEPSKRKRTARPKKPEAKEPSPKSRKTDEDKHDKDSNEKIEDVNEKTIKFADKSQEEFNENGPPSGQPNGHIESDNESKSPSQKESNESEDIQIAETPSNVTPKKKPSPEVPKLPDNRELTVKQVENYDSWEDLVSSIDTIERKDDGTLEIYLTWKNGAISHHPSTITNKKCPQKMLQFYESHLTFRENE

What was measured:
[1] = molecular target: H3K9me3 mononucleosome (UniProt P68431); experiment: native gel or EMSA
[2] = molecular target: the molecule itself; experiment: cross-linking

Row | Molecule | fold increase in H3K9me3 nucleosome binding specificity against WT Swi6 [1] [fold] | binding result [2]
1 | Swi6^2XCD-GST (recombinant, 6XHis tag cleaved) | 2 | –
2 | B1 | – | binds
